# Patent US20020028487A1 (UNIVERSITY COURT OF THE UNIVERSITY OF GLASGOW, published 2002)
# B1: VP16-JMY^469-558 (other)
# chain: EKLQYAVSKETLQMMRAKEICLEQKKHALKEEMQSLQGGTEAIARLDQLESDYYDLQLQLYEVQFEILKCEELLLTAQLESIKRLISEKR
# notes: Two-hybrid prey used in yeast and in U2OS cells; also called pVP16-JMY^469-558; JMY-VP16
# B2: Lex-JMY^469-558 (other)
# chain: B1 chain
# notes: Yeast two-hybrid bait; also called pLex-JMY^469-558; not shown: LexA part of bait vector pLex (his)
# Assays:
# G4-p300^611-1257 = G4-p300^611-1257 (yeast, UniProt P04386 1-147; Q09472 611-1257); assay: cell-based or functional assay
# G4-p300^1572-2283 = G4-p300^1572-2283 (yeast, UniProt P04386 1-147; Q09472 1572-2283); assay: cell-based or functional assay
# [1] = biological target: T1, G4-p300 from residue 1302 to 1572 (yeast, UniProt P04386 1-147; Q09472 1302-1572); assay: mammalian two-hybrid assay, U2OS cells, pG5-luc reporter
# T1 construct: Mammalian two-hybrid bait; also called p300^302-1572 (as printed in the methods)
# VP16-JMY^469-558 = biological target: B1; assay: yeast two-hybrid, β-galactosidase induction; prey VP16-JMY^469-558
Binder,"relative activity of luciferase to β-galactosidase (pG5-luc reporter, mammalian two-hybrid assay in U2OS cells) (G4-p300^611-1257) [fold increase]","relative activity of luciferase to β-galactosidase (pG5-luc reporter, mammalian two-hybrid assay in U2OS cells) (G4-p300^1572-2283) [fold increase]",binding result [1],binding result (VP16-JMY^469-558)
B1,4,5,no binding,
B2,,,,binds
